Experimental data taken from patent publication US20240239915A1 (Zymeworks, published 2024).
Like-named read-outs stand apart in the source and are kept apart here.

T1: Recombinant Human Fc gamma RIIA/CD32a (H167) Protein (R&D Systems), His-tagged (human, UniProt P12318 34-218)
T1 construct: also called human FcγRIIa (H167); hFcγRIIa (H167)
T1 sequence: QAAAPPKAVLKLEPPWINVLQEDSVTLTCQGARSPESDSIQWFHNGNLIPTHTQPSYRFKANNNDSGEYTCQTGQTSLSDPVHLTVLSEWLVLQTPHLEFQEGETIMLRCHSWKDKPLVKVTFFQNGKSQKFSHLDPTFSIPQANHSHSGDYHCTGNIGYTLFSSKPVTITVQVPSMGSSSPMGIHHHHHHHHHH

T2: Recombinant Human Fc gamma RIIB/C (CD32b/c) Protein (R&D Systems), His-tagged (human, UniProt P31994 46-217)
T2 construct: also called human FcγRIIb/c; hFcγRIIb/c
T2 sequence: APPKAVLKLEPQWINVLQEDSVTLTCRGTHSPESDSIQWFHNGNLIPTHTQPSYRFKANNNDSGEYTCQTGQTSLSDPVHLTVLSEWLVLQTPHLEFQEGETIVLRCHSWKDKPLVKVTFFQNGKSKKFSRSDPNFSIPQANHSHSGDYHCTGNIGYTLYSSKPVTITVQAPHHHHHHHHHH

T3: Recombinant Human Fc gamma RIIIB/CD16b Protein (R&D Systems), His-tagged (human, UniProt O75015 20-208)
T3 construct: also called human FcγRIIIb; hFcγRIIIb
T3 chain: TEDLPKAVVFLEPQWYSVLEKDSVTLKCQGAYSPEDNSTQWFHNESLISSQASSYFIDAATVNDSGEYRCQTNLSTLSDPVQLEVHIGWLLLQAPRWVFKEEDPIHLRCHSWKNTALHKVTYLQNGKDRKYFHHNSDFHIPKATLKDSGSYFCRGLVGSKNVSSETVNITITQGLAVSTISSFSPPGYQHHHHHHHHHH

T4: Recombinant Cynomolgus Fc gamma RIIA/CD32a Protein (R&D Systems), His-tagged (cynomolgus)
T4 construct: also called cynomolgus FcγRIIa; cFcγRIIa
T4 chain: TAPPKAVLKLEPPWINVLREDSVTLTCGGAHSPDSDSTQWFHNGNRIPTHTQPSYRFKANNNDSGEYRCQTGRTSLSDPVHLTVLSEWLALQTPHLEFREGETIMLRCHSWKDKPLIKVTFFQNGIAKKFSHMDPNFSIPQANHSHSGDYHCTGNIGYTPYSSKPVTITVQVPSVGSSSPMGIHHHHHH

T5: Recombinant Cynomolgus Fc gamma RIIB protein (R&D Systems), His-tagged (cynomolgus)
T5 construct: also called cynomolgus FcγRIIb; cFcγRIIb
T5 chain: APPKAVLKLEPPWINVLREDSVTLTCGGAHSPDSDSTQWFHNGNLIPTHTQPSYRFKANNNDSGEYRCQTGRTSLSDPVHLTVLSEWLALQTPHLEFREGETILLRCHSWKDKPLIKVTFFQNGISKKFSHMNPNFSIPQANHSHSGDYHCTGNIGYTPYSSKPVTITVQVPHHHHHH

T6: Recombinant Cynomolgus Fc gamma RIII/CD16 Protein (R&D Systems), His-tagged (cynomolgus, UniProt Q8SPW2 17-208)
T6 construct: also called cynomolgus FcγRIII; cFcγRIII
T6 chain: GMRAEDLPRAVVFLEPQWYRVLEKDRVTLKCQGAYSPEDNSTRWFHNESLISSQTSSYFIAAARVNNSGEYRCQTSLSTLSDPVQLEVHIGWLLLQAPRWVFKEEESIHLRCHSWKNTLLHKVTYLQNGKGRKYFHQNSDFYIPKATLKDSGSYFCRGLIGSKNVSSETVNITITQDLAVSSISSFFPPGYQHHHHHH

T7: Recombinant Human Fc gamma RIIA/CD32a (R167) Protein (R&D Systems), His-tagged (human, UniProt P12318 36-218)
T7 construct: also called human FcγRIIa; hFcγRIIa
T7 chain: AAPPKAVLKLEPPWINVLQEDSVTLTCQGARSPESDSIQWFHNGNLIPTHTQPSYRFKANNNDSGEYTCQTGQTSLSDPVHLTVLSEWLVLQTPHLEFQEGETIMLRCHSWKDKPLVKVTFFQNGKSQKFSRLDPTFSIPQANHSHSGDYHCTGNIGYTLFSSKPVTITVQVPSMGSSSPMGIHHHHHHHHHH

B1: L234A/L235A/D265G (LALA-DG) variant of IgG1 WT of the anti-EGFR antibody panitumumab (antibody)
heavy: QVQLQESGPGLVKPSETLSLTCTVSGGSVSSGDYYWTWIRQSPGKGLEWIGHIYYSGNTNYNPSLKSRLTISIDTSKTQFSLKLSSVTAADTAIYYCVRDRVTGAFDIWGQGTMVTVSSASTKGPSVFPLAPSSKSTSGGTAALGCLVKDYFPEPVTVSWNSGALTSGVHTFPAVLQSSGLYSLSSVVTVPSSSLGTQTYICNVNHKPSNTKVDKRVEPKSCDKTHTCPPCPAPEAAGGPSVFLFPPKPKDTLMISRTPEVTCVVVGVSHEDPEVKFNWYVDGVEVHNAKTKPREEQYNSTYRVVSVLTVLHQDWLNGKEYKCKVSNKALPAPIEKTISKAKGQPREPQVYTLPPSREEMTKNQVSLTCLVKGFYPSDIAVEWESNGQPENNYKTTPPVLDSDGSFFLYSKLTVDKSRWQQGNVFSCSVMHEALHNHYTQKSLSLSPGK
light: not shown
notes: Mutations in both CH2 domains; positions are EU numbers
B2: LALA-DG variant of the anti-LPS antibody O11-1111 (IgG1) (antibody)
heavy: QVQLVQSGAEVKKPGASVKVSCKASGYTFTSYWINWVRQAPGQGLEWMGNIYPGSSSINYNEKFKSRVTITADTSTSTAYMELSSLRSEDTAVYYCARTIYNYGSSGYNYAMDYWGQGTLVTVSSASTKGPSVFPLAPSSKSTSGGTAALGCLVKDYFPEPVTVSWNSGALTSGVHTFPAVLQSSGLYSLSSVVTVPSSSLGTQTYICNVNHKPSNTKVDKRVEPKSCDKTHTCPPCPAPEAAGGPSVFLFPPKPKDTLMISRTPEVTCVVVGVSHEDPEVKFNWYVDGVEVHNAKTKPREEQYNSTYRVVSVLTVLHQDWLNGKEYKCKVSNKALPAPIEKTISKAKGQPREPQVYTLPPSREEMTKNQVSLTCLVKGFYPSDIAVEWESNGQPENNYKTTPPVLDSDGSFFLYSKLTVDKSRWQQGNVFSCSVMHEALHNHYTQKSLSLSPGK
light: DIVMTQSPDSLAVSLGERATINCKASENVGNSVSWYQQKPGQPPKLLIYGASNRYTGVPDRFSGSGSGTDFTLTISSLQAEDVAVYYCGQSYSYPYTFGQGTKVEIKRTVAAPSVFIFPPSDEQLKSGTASVVCLLNNFYPREAKVQWKVDNALQSGNSQESVTEQDSKDSTYSLSSTLTLSKADYEKHKVYACEVTHQGLSSPVTKSFNRGEC
notes: substitutions in EU numbering; also called Anti-LPS Antibody LALA-DG
B3: LALA-DG variant of the anti-CD70 antibody vorsetuzumab (IgG1) (antibody, name in EU numbering)
heavy: QVQLVQSGAEVKKPGASVKVSCKASGYTFTNYGMNWVRQAPGQGLKWMGWINTYTGEPTYADAFKGRVTMTRDTSISTAYMELSRLRSDDTAVYYCARDYGDYGMDYWGQGTTVTVSSASTKGPSVFPLAPSSKSTSGGTAALGCLVKDYFPEPVTVSWNSGALTSGVHTFPAVLQSSGLYSLSSVVTVPSSSLGTQTYICNVNHKPSNTKVDKRVEPKSCDKTHTCPPCPAPEAAGGPSVFLFPPKPKDTLMISRTPEVTCVVVGVSHEDPEVKFNWYVDGVEVHNAKTKPREEQYNSTYRVVSVLTVLHQDWLNGKEYKCKVSNKALPAPIEKTISKAKGQPREPQVYTLPPSREEMTKNQVSLTCLVKGFYPSDIAVEWESNGQPENNYKTTPPVLDSDGSFFLYSKLTVDKSRWQQGNVFSCSVMHEALHNHYTQKSLSLSPGK
light: DIVMTQSPDSLAVSLGERATINCRASKSVSTSGYSFMHWYQQKPGQPPKLLIYLASNLESGVPDRFSGSGSGTDFTLTISSLQAEDVAVYYCQHSREVPWTFGQGTKVEIKRTVAAPSVFIFPPSDEQLKSGTASVVCLLNNFYPREAKVQWKVDNALQSGNSQESVTEQDSKDSTYSLSSTLTLSKADYEKHKVYACEVTHQGLSSPVTKSFNRGEC
notes: also called Anti-CD70 Antibody LALA-DG

Legend:
[1] = molecular target: T8, Recombinant Human Fc gamma RI/CD64 Protein, CF (R&D Systems), His-tagged (human, UniProt P12314 16-288); assay: SPR (Biacore T200), RU at 4.7 µM antibody
T8 construct: also called human FcγRI; hFcγRI

[2] = molecular target: T1, Recombinant Human Fc gamma RIIA/CD32a …; assay: SPR (Biacore T200), RU at 4.7 µM antibody
[3] = molecular target: T9, Recombinant Human Fc gamma RIIIA/CD16a (V176F) Protein (R&D Systems), His-tagged (human, UniProt P08637 17-208); assay: SPR (Biacore T200); receptor immobilized directly on CM5 chip, antibody as analyte at 4.7 µM
T9 construct: no further substitution applied; also called human FcγRIIIa (V176F); hFcγRIIIa (V176F)

[4] = molecular target: T10, Recombinant Human Fc gamma RIIIA/CD16a protein (R&D Systems), His-tagged (human, UniProt P08637 17-208); assay: as above
T10 construct: also called human FcγRIIIa; hFcγRIIIa

[5] = molecular target: T1, Recombinant Human Fc gamma RIIA/CD32a …; assay: as above
[6] = molecular target: T2, Recombinant Human Fc gamma RIIB/C …; assay: as above
[7] = molecular target: T3, Recombinant Human Fc gamma RIIIB/CD16b …; assay: as above
[8] = molecular target: T11, human FcRn (human neonatal Fc receptor large subunit p51 and beta2-microglobulin), biotinylated (human, UniProt P55899 24-297; P61769 21-119, biotinylated (site not stated)); assay: BLI (Octet RED384), biotinylated FcRn on streptavidin biosensor, binding and dissociation at pH 6.0
[9] = molecular target: T4, Recombinant Cynomolgus Fc gamma …; assay: SPR (Biacore T200); receptor immobilized directly on CM5 chip, antibody as analyte at 4.7 µM
[10] = molecular target: T5, Recombinant Cynomolgus Fc gamma RIIB …; assay: as above
[11] = molecular target: T6, Recombinant Cynomolgus Fc gamma …; assay: as above
[12] = molecular target: T11, human FcRn (human neonatal Fc receptor …); assay: BLI (Octet RED384), biotinylated FcRn on streptavidin biosensor, binding at pH 6.0, dissociation at pH 7.4
[13] = molecular target: T10, Recombinant Human Fc gamma RIIIA/CD16a …; assay: SPR (Biacore T200); receptor immobilized directly on CM5 chip, antibody as analyte at 4.7 µM; remark: listed apart in the source
[14] = molecular target: T2, Recombinant Human Fc gamma RIIB/C …; assay: as above; remark: listed apart in the source
[15] = molecular target: T3, Recombinant Human Fc gamma RIIIB/CD16b …; assay: as above
[16] = molecular target: T7, Recombinant Human Fc gamma RIIA/CD32a …; assay: as above
[17] = molecular target: T8, Recombinant Human Fc gamma RI/CD64 …; assay: SPR (Biacore T200); His-tagged receptor captured on anti-His antibody chip, antibody as analyte at 4.7 µM; reference: LALA variant of the same antibody (anti-LPS O11-1111)
[18] = molecular target: T8, Recombinant Human Fc gamma RI/CD64 …; assay: SPR (Biacore T200), RU at 4.7 µM antibody, anti-LPS antibody O11-1111
[19] = molecular target: T8, Recombinant Human Fc gamma RI/CD64 …; assay: SPR (Biacore T200): His-tagged human FcγRI captured on an anti-His antibody chip, antibody as analyte; RU plotted against antibody concentration
[20] = molecular target: T8, Recombinant Human Fc gamma RI/CD64 …; assay: SPR (Biacore T200), RU at 4.7 µM antibody, anti-CD70 antibody vorsetuzumab

T8 sequence (P12314 other isoform, or with tags, fused parts or gaps): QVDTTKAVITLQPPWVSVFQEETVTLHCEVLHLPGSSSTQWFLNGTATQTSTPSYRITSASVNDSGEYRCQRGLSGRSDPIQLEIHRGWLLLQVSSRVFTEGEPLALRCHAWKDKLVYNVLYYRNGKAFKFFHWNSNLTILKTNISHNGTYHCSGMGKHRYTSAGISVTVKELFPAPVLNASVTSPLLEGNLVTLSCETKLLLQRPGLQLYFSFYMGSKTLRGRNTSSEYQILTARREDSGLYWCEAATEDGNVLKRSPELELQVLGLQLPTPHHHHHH
T10 sequence (P08637 other isoform, or with tags, fused parts or gaps): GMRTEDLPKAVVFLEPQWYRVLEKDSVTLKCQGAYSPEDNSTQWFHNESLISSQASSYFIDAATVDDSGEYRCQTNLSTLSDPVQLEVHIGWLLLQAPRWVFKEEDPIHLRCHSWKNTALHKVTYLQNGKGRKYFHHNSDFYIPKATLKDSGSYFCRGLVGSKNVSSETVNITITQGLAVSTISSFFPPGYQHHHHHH
T11 sequence (P55899 24-297 limits assumed, chain 1 of 2): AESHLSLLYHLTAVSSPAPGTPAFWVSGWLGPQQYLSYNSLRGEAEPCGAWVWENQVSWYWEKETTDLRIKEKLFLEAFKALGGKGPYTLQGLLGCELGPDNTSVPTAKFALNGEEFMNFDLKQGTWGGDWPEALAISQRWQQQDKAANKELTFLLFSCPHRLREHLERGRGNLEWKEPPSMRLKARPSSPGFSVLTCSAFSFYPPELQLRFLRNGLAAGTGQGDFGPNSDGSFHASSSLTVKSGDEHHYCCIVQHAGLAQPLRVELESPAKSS
T11 sequence (P61769 21-119 limits assumed, chain 2 of 2): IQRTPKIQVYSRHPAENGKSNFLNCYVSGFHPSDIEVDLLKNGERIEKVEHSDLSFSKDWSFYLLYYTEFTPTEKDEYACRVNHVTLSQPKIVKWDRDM
T9 sequence (P08637 other isoform, or with tags, fused parts or gaps V176F V176F): as the sequence (P08637 other isoform, or with tags, fused parts or gaps) above, with V160F counted along it

| Binder | RU value relative to the LALA-DA variant [1] [fold] | RU value relative to the other variants [2] [fold] | binding response (RU) [3] [RU] | binding response (RU) [4] [RU] | binding response (RU) [5] [RU] | binding response (RU) [6] [RU] | binding response (RU) [7] [RU] | Kd [8] [nM] | binding response (RU) [9] [RU] | binding response (RU) [10] [RU] | binding response (RU) [11] [RU] | koff [12] [s⁻¹] | binding response (RU) [13] [RU] | binding response (RU) [14] [RU] | binding response (RU) [15] [RU] | binding response (RU) [16] [RU] | RU value relative to that of the LALA variant [17] | RU value relative to the LALA variant [18] [fold] | binding result [19] | RU value relative to the LALA variant [20] [fold] |
| --- | --- | --- | --- | --- | --- | --- | --- | --- | --- | --- | --- | --- | --- | --- | --- | --- | --- | --- | --- | --- |
| B1 | ~0.1 | ≤ 0.5 | -4.4 | -2.7 | 8.8 | 15 | -0.3 | 5.8 | 19 | 89 | 3.8 | 2.2 | – | – | – | – | – | – | – | – |
| B2 | – | – | – | – | – | – | – | – | – | – | – | – | -7.2 | -2.6 | -7.1 | -2.2 | ~0.0033 ratio (LALA-DG RU / LALA RU) | ~0.0033 | – | – |
| B3 | – | – | – | – | – | – | – | – | – | – | – | – | -2.1 | 1.3 | -3.7 | – | – | – | no binding (tested: 4.7 µM) | ~0.005 |
